Measurements: paper PMC6327479

Test system: T1, HicB-6His (Sinorhizobium meliloti), ORF:5e3b9e2c
T1 sequence: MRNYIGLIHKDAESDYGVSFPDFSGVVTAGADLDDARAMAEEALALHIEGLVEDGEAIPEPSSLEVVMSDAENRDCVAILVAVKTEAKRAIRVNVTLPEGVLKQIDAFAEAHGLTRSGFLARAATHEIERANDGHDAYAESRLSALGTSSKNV
Experiment: EMSA
Conditions: EMSA: 10 mM Tris-HCl pH 7.5, 50 mM NaCl, 1 mM DTT, 300 ug/ml BSA, 20 ul, 30 min at 25 C; 5% native PAGE in TAE pH 7.5

“GATCCGACGGTTCGAGACCATCCGAGAAAGCCGCCTTAGATTGGCTTGACAAATTCATTGGACGAATACACATGCGTGTGTATTGTCGTATCAGATGAAGAGCGGCGACATTATTGCAGCATTGCAGAAGGACGGATGGTACGAGGTTGCGACCAAGGGCAGCCACGTTCAATTCAAACATCCGAAAAAGCACGGCCGGGTTACCGTTCCTCACCCGAAGA (double strand) [hicAB promoter fragment]” was tested, and the binding was “binds”.
